Measurements: PMC7275037, “DNA origami-based single-molecule force spectroscopy elucidates RNA Polymerase III pre-initiation complex stability”
“And” between values parts separate entries of the source, which are not always exact repeats. Equal entries are not always repeated.

Assays:
[1] = biological target: TBP;TFIIA (single chain) (Homo sapiens;Homo sapiens) (UniProt P20226+P52655+P52657); test: smFRET; conditions: Binding buffer and temperature not in the material (origami folding buffer: 10 mM Tris pH 7.6, 1 mM EDTA, 20 mM MgCl2, 5 mM NaCl); TFIIB 0.2 uM, TFIIA 2 uM …
[2] = biological target: TBP;TFIIA (single chain);TFIIB (Homo sapiens;Homo sapiens;Homo sapiens?) (UniProt P20226+P52655+P52657+Q00403); test: smFRET; conditions: Binding buffer and temperature not in the material (origami folding buffer: 10 mM Tris pH 7.6, 1 mM EDTA, 20 mM MgCl2, 5 mM NaCl); TFIIB 0.2 uM, TFIIA 2 uM …
TBP = TBP (Homo sapiens, UniProt P20226 169-339); test: smFRET; TIRF dwell times; 0 pN; 20 nM TBP; E=0.39; Binding buffer and temperature not in the material (origami folding buffer: 10 mM Tris pH 7.6, 1 mM EDTA, 20 mM MgCl2, 5 mM NaCl); TFIIB 0.2 uM, TFIIA 2 uM, other proteins 20 nM; conditions: protein: recombinant; tags: N-terminal His; label: ATTO 532 and ATTO 647N on S17 strand (positions by colour only); ds region (U6_comp) within ssDNA spring
TBP, sequence (P20226 169-339): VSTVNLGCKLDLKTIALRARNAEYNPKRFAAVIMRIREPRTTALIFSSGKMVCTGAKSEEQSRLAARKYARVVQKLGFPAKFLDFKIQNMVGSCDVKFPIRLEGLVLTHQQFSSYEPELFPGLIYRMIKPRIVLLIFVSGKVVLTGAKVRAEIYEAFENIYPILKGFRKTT

TBP;TFIIA (single chain);TFIIB (Homo sapiens;Homo sapiens;Homo sapiens?), sequence (P20226 whole entry, chain 1 of 4): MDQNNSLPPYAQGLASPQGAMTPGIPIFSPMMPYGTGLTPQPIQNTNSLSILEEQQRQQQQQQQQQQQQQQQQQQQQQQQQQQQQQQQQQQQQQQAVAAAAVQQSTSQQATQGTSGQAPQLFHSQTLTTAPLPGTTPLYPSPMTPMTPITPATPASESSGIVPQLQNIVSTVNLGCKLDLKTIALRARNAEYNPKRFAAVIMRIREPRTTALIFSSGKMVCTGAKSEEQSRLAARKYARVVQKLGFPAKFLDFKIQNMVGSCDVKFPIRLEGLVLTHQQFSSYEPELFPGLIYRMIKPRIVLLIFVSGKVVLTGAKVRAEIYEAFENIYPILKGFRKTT
TBP;TFIIA (single chain);TFIIB (Homo sapiens;Homo sapiens;Homo sapiens?), sequence (P52655 whole entry, chain 2 of 4): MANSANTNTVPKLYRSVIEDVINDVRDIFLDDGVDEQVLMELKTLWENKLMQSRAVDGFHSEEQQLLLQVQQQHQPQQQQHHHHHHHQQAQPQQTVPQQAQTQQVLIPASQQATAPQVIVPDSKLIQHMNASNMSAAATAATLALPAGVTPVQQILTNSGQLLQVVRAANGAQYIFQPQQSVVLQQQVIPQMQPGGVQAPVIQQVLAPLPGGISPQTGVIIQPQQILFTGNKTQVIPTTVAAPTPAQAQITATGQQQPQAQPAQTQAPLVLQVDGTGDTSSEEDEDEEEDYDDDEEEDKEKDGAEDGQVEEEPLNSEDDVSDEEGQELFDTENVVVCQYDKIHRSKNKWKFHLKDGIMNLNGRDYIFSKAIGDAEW
TBP;TFIIA (single chain);TFIIB (Homo sapiens;Homo sapiens;Homo sapiens?), sequence (P52657 whole entry, chain 3 of 4): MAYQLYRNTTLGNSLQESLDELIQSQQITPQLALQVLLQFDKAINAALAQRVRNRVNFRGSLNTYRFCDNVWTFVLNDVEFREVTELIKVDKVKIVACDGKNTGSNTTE
TBP;TFIIA (single chain);TFIIB (Homo sapiens;Homo sapiens;Homo sapiens?), sequence (Q00403 whole entry, chain 4 of 4): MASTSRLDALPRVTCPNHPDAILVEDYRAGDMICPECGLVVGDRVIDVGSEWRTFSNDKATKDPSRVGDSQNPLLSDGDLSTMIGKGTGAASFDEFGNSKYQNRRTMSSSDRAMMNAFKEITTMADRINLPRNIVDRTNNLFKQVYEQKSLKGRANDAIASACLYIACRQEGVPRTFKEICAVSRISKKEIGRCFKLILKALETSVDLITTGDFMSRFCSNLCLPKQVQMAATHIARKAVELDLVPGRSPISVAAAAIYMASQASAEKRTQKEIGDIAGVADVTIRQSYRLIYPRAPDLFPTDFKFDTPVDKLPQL
TBP;TFIIA (single chain) (Homo sapiens;Homo sapiens), sequence (P20226 whole entry, chain 1 of 3): as the sequence (P20226 whole entry, chain 1 of 4) above
TBP;TFIIA (single chain) (Homo sapiens;Homo sapiens), sequence (P52655 whole entry, chain 2 of 3): as the sequence (P52655 whole entry, chain 2 of 4) above
TBP;TFIIA (single chain) (Homo sapiens;Homo sapiens), sequence (P52657 whole entry, chain 3 of 3): as the sequence (P52657 whole entry, chain 3 of 4) above

Molecule | binding signal (% high FRET (bent)) [1] | binding signal (% high FRET (bent)) [2] | binding result (TBP)
AAGCTTTAGGGCGCCTATAAAAGGGGGTTCGGGCG (double strand) [AdMLP promoter in DNA origami force clamp] | 26 | 72 and 53 | 
U6 snRNA promoter in DNA origami force clamp (dsDNA) DNA 1: CGGACCAAGATGATTTGATTGAAGGGCTTAAAATAGGTGTTAGAGTAACCCTTGA DNA 2: TCAAGGGTTACTCTAACACCTATTTTAAGCCCTTCAATCAAATCATCTTGGTCCG |  |  | binds
